# Source: US20170363644
# B1: factor XII (FXII) (protein)
# chain: IPPWEAPKEHKYKAEEHTVVLTVTGEPCHFPFQYHRQLYHKCTHKGRPGPQPWCATTPNFDQDQRWGYCLEPKKVKDHCSKHSPCQKGGTCVNMPSGPHCLCPQHLTGNHCQKEKCFEPQLLRFFHKNEIWYRTEQAAVARCQCKGPDAHCQRLASQACRTNPCLHGGRCLEVEGHRLCHCPVGYTGAFCDVDTKASCYDGRGLSYRGLARTTLSGAPCQPWASEATYRNVTAEQARNWGLGGHAFCRNPDNDIRPWCFVLNRDRLSWEYCDLAQCQTPTQAAPPTPVSPRLHVPLMPAQPAPPKPQPTTRTPPQSQTPGALPAKREQPPSLTRNGPLSCGQRLRKSLSSMTRVVGGLVALRGAHPYIAALYWGHSFCAGSLIAPCWVLTAAHCLQDRPAPEDLTVVLGQERRNHSCEPCQTLAVRSYRLHEAFSPVSYQHDLALLRLQEDADGSCALLSPYVQPVCLPSGAARPSETTLCQVAGWGHQFEGAEEYASFLQEAQVPFLSLERCSAPDVHGSSILPGMLCAGFLEGGTDACQGDSGGPLVCEDQAAERRLTLQGIISWGSGCGDRNKPGVYTDVAYYLAWIREHTVS
# Molecular target: Aβ42 oligomers, P05067
protein,measurement,value
B1,"FXII autoactivation, chromogenic substrate assay with purified FXII",Aβ42 oligomers can directly induce FXII autoactivation
same,FXII cleavage in human plasma (Western blot: FXII zymogen and FXIIa heavy chain),plasma incubated with Aβ42 had decreased FXII zymogen and increased FXIIa heavy chain compared to incubation with vehicle
